# Results taken from the nanobody polyreactivity screen of Harvey et al. (2022).
# Assay: yeast display, Sf9 membrane polyspecificity reagent, FACS + sequencing; frameworks hold sequencing errors
# How it was run: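 A synthetic nanobody library was expressed on Saccharomyces cerevisiae BJ5465 by galactose induction for 36–48 hours. The library was stained for 1 hour at 4 °C with 10% biotinylated, detergent-solubilized Sf9 membrane reagent and enriched with streptavidin microbeads before FACS. Low and high (top ~1%) gates were set on anti-HA fluorescence for expression and streptavidin fluorescence for reagent binding, and each polyreactivity label reflects the gate of origin.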
row,Sequence,polyreactivity (PSR sort gate)
1,QVQLVESGGGLVQAGGSLRLTCAASGNIFDLYAMGWYRQAPGTERELVASITSDGITYYADSVKGRFTISRDNAKNTVYLQMNSLKPEDSAVYYCAVVRSYRYLPRGDYWGQGTQVTVSS,low polyreactivity
2,QVQLVESGGGLVQAGGSLRLTCAASGNNYLDNAMGWYRQAPGKERELVASITRSGSRTYYADSVKGRFTISRDNAKNTGYFQMNSLKPEDTAVFYCNAGVNERQYDYWGLGTQVTVSS,high polyreactivity
3,QVQLVESGGGLVQAGGSLRLTCAASGRIFFYYSMGWYRQAPGKERELVAAIRSGGSTNYADSVKGRFTISRDNAKNTVYLQMYILKPEDTAGYYSAAHPTRYYTPRYYYWGLGTQVTVSS,high polyreactivity
4,QVQLVESGGGLVQAGGSLRLTCAASGRIFGRNTMGWYRQAPGKEMELVAAISSSGGSTRYADSVKGRFTISRDNAKNTVYIQMNSLKPEDTALYYCAAVRNRHGYDYWGKGTQVTVSS,high polyreactivity
5,QVQLVESGGGLVQAGGSLRLTCAASGRIFITNAMGWYSQAPGKEREMVAVISYIGGRTYYADSVKGRFTISRDNAKNTVYLQMNSLKPEDTAVYYCAARRSRPTYYSTGVNYWGQGTQVTVSS,high polyreactivity
6,QVQLVESGGGLVQAGGSLRLTCAASGRIFIYYAMGWYRQAPGKERELVAAISWGGGRTYYADSVKGRFTISRDNAKNTVYLQMNSLKPEDTAVYYCAAGVYTGQHEYDYWGQGTQVTVSS,low polyreactivity
7,QVQLVESGGGLVQAGGSLRLTCAASGRIFLINPMGWYRQAPGKDRELVAGIRGRTGSTNYADSVKGRFTISRDNAKNTVYLQMNRLKPEDTAVYYCAARFSVQDGGPYAYDYWGQGTQVTVSS,low polyreactivity
8,QVQLVESGGGLVQAGGSLRLTCAASGRIFNIYAMGWYRQAPGKERELVAAISVSGTRTYYADSVKGRFTISRDNAKNTVYLHMNSLKPEDTAVYYCAADSYGGVWTEHMYYWGQGTQVTVSS,low polyreactivity
9,QVQLVESGGGLVQAGGSLRLTCAASGRIFRTYAMGWYRQAPGKERELVAAISGRGGNTYYADSVKGRFTISRDNAKNTVYLQMNSLKPEDTAVYYCAASKPSRDTQQRWVYAGYDYWGQGTQVTVSS,high polyreactivity
10,QVQLVESGGGLVQAGGSLRLTCAASGRIFSANAMGWYRKAPGKERELVATISTGGGRTYYADSVKGRFTISRDYAKNTVYLQMNSLKAEDTAVYYCNDTGNYARFLYYSWCQGTQVTVSS,high polyreactivity
11,QVQLVESGGGLVQAGGSLRLTCAASGRIFSANAMGWYRLAPGKERELVAGIDSGGSTNYADSVKGRFTISGDNAKNTVYLQMNSLKPEDTAVYYCAKYRGRGNTYNGGYDYWGQVTQVTVSS,low polyreactivity
12,QVQLVESGGGLVQAGGSLRLTCAASGRIFSHNTMGWYRQAPGKERELVAAISGGGGRTYYADSVKGRFTISRDNAKNTVYLQMKSLKPEDTAVYYCAAVRVSYRSLSKSYYWGQGTQVTVSS,high polyreactivity
13,QVQLVESGGGLVQAGGSLRLTCAASGRIFTRYAMGWYRQAPGKERELVAAISYGGGGTYYADSVKGRFTISRDNAKNTVYLQMNSLKPEVTSVYYCAADPGYYSWGSSQDDYWGQGTQVTVSS,low polyreactivity
14,QVQLVESGGGLVQAGGSLRLTCAASGRIFYGYTMGWYRKAPGKERELVAAITRRGGRTYYADSVKGRFTISRDNAKNTVYLQMNCLKPEDTAVYYCAATRSGEYDYWGQGTQVTVSS,high polyreactivity
15,QVQLVESGGGLVQAGGSLRLTCAASGRIIIGYVMGWYRQAPGKERELVATISYSGGSTYADSVKGRFTISRDNAKNTVYLQMNSLKPEDTAVYYCAARPYYRYYRYPYGYWGQGTQVTVSS,high polyreactivity
16,QVQLVESGGGLVQAGGSLRLTCAASGRILGYNDMGWYRHAPGKERELVPTSSGTSTYYADSVKGRFTISRDNAKNTVYLQMNSLKPEVTAVYYCNTDYVITLPAYDYWGQGTQVTVSS,low polyreactivity
17,QVQLVESGGGLVQAGGSLRLTCAASGRILLVNAMGWSRQAPGKERELVAAITSGGSTNYADSVKGRFTISRDNAKNTVYFQMNSLKPEDTAVYFCAATITLYRSRGRYGYWGQGTQVTASS,high polyreactivity
